{"source": "paper PMC3568461", "system": "CCCC[C@H](NC(=O)c1ccccc1)C(=O)N[C@@H](CCCCN)C(=O)N[C@@H](CCCNC(=N)N)C(=O)N[C@@H](CCCNC(=N)N)C(=O)Nc1ccc2c(C)cc(=O)oc2c1", "test": "In vitro WNV protease assay with tetra-peptide substrate", "assay_type": "biochemical, West Nile virus", "conditions": "other: tetra-peptide substrate; pH 9.5; 25.0 °C", "data": [{"substance": "WNV NS2B-NS3 protease (West Nile virus strain NY-99)", "values": [{"measurement": "Km", "result": "24.56 ± 1.43", "unit": "µM"}]}]}
